From patent US8513188B2, “Formulations comprising cyclic compounds” (priority 2006, dated 2013)

Tests used:
[1] = Dissolution of protein Rantes in organic medium (DCM/MeOH), HPLC of supernatant; type: physicochemical; settings: for presence of protein in HPLC trace of supernatant: centrifuged
Protocol: Two samples of 0.2 mg each of the folded protein Rantes were taken. One sample was used as standard and dissolved in a fixed volume (300 ul) of water/acetonitrile 50% v/v and 30 ul where injected onto HPLC (FIG. 6, HPLC section A) .
The second sample was suspended in a mixture of DCM/MeOH 70%30% VN, (300 ul). The suspension with solid particles was centrifuged and the surnatant injected onto HPLC volume (30 ul).
Then, 2.0 mg of Nonactine were added and the mixture was vortexed. […] Then, the mixture was centrifuged and 30 ul of the supernatant were injected onto HPLC. […] In the HPLC section C the protein has a different retention time (early elution) from the standard in section A. This phenomenon could be explained by the high percentage of organic solvents (like CH2Cl2 depicted in the figure) that carried through the protein complex with nonactine causing early elution.

[2] = tested on: Caco-2 cells; settings: insulin incorporated into liposome according to Sigma preparation, no 18-crown-6
Protocol: Liposomes were purchased from Sigma-Aldrich (pre-liposome formulation 8; product No. L3531) and used according to the following procedure. Alternatively, same ingredients were purchased by other suppliers (Avanti), and liposomes were prepared according the procedure indicated by Sigma. Insulin passage was measured by HPLC injection of samples in the receiving chamber.
The organic mixture containing insulin was mixed with the lipid mixture of Sigma, then solvent was evaporated or lyophilized. Water addition generated liposomes that were tested for delivery in Caco-2 cells.

[3] = dose 2: 2.6 mg desalted human insulin + 60 mg 18-crown-6 in about 310 ul mixture
Protocol: Dose 2: 2.6 mg of desalted human insulin with TFA counter-ions are mixed with 60 mg of 18-crown-6. To these solids, 250 μl of a mixture is added, the mixture being composed of 200 μl of a 50% mixture of Propylen glycole and 50% glycerol, 200 mg of mono-decanoyl-glycerol and 100 μl of Cremofor EL. The final volume is approximately 310 μl.

[4] = tested on: mice; assay: In vivo insulin delivery in mice by sub-lingual administration, blood glucose decrease; settings: dose 1, sublingual
Protocol: Dose 1: 0.5 mg of desalted human insulin with TFA counter-ions (corresponds to 0.4 mg of non treated standard insulin) are mixed with 60 mg of 18-crown-6. […] The final volume is approximately 310 μl.
The final volume is approximately 310 μl.
Mice were treated with 6.5 μl of mixture 1 and 2, respectively. In dose 1, each mouse was treated with approximately 10 μg of desalted human insulin with TFA counter-ions (corresponds to 8 μg of non treated standard insulin). In dose 2, each mouse was treated with approximately 52 μg of desalted human insulin with TFA counter-ions (corresponds to 41.6 μg of non treated standard insulin).
Results: Insulin Delivery is Measured by Blood Glucose Decrease.

[5] = tested on: Caco-2 cells; settings: insulin at same concentration in physiological buffer, without formulation agent and organic vehicle
Protocol: Should insulin pass through the Caco-2 cell lines, it is found in the receiving chamber.
Insulin Concentration: 3 mg in 125 μl of olive oil/Peg, 92%/8%, v/v
Vehicle: olive oil/Peg (esaethylenglycol)
Positive control: Ibuprofen: 1 mg in 125 μl physiological buffer.
After vortex, 50 μl of the final mixture are added to the caco-2 cell well in double.
Active Sample Preparation (Insulin with Vehicle & Formulation Agent)
After MeOH evaporation, 115 μl of olive oil and 10 μl Peg are added. Vortex for 2-3 minutes. After vortex, 50 μl of the final mixture are added to the Caco-2 cell well in double.
Control (Insulin with Formulation Agent in Physiological Buffer; No Organic or Non-Aqueous Vehicle Present)
Vortex the mixture for 2-3 minutes. […] Then methanol is evaporated and 125 μl of physiological buffer are added; 50 μl of the above solution are added to the Caco-2 cell well in double.

## C[C@@H]1C[C@H]2CC[C@H](O2)[C@H](C)C(=O)O[C@@H](C)C[C@@H]2CC[C@@H](O2)[C@@H](C)C(=O)O[C@H](C)C[C@H]2CC[C@@H](O2)[C@H](C)C(=O)O[C@@H](C)C[C@@H]2CC[C@@H](O2)[C@@H](C)C(=O)O1 [Nonactine]
[1]; 0.2 mg Rantes in 300 ul DCM/MeOH 70%/30% + 2.0 mg Nonactine, versus water/acetonitrile standard
  presence of protein in HPLC trace of supernatant: presence of the peptide in similar proportion as per the area of the standard
[1]; 0.2 mg Rantes in 300 ul DCM/MeOH 70%/30% + 2.0 mg Nonactine, vortexed
  appearance of the mixture after addition of Nonactine: clear solution

## Insulin: human insulin, previously desalted; with TFA counter-ions in Example 8
[2]
  insulin passage through Caco-2 cells: did not result measurable insulin passage
[3]
  solubility of insulin in the dose mixture: precipitation of insulin occurred
[4]; about 10 ug desalted human insulin with 18-crown-6, compared with IP injection
  effect on blood glucose (insulin delivery): close to the effects of IP injection
[4]; dose about 7 times the injected control dose
  actual delivery: around 10%
[5]
  insulin passage across Caco-2 cells: does not cross caco-2 cells

## Rantes: folded protein Rantes, a chemokine
[1]; 0.2 mg Rantes suspended in 300 ul DCM/MeOH 70%/30%, no Nonactine
  presence of protein in HPLC trace of supernatant: no presence of the protein in the chromatogram
